Molecular target: the molecule itself
Assay: in vitro recrystallisation (self-assembly) seen by electron microscopy (REM, TEM); FPLC-purified mSbsC-EGFP, denatured in Gua-HCl, dialysed against dH2O over night; assembled structures negatively stained with 3% ammonium molybdate pH 7.2

B1: mSbsC-EGFP fusion protein (mature S-layer protein SbsC, aa 31-1099, of Geobacillus stearothermophilus ATCC 12980 fused to EGFP), from E. coli (natural protein, UniProt O68840 31-1099, looked up)
chain: ATDVATVVSQAKAQMKEAYYTYSHTVTETGQFPDIKDVYAAYNKAKQAYANAVAVVNKAGGAKKDAYLADLQAIYETYVFKANPKSGEARVATYIDAYNYATKLDKMRQELKAAVDAKDLKKAEELYHKISYELKTRTVILDRVYGQSTRELLRSTFKADAQALRDRLIYDITVAMKAREAQDAVKAGNLDKAKAALDQVNQYVSKVTDAFKAELQKAAQDAKAAYEAALTPKVESVSAIDSTSFKVTFTKPVDKATAIPKNFSITLKGTETKLYPKSVEVSESGLTATVTLYDTLVDGKTYTVVTSGLKDTAGKEFETSTNEFTYNKPVPASITFNFNKLPEDSAVDLTKYVTVKDAAGNVIKSGFELEFTSSEKLTQGKFINTTGKKSVIVNATVKGTNVTTGNVILAVEDEKAAEVSELKLTKDNKEVVTLYANGNAFDKDGNQISSGTLTLTAKFKDQYGNELTGKVAGTDYTFESLNPEVLVVAPDGSVTPIVPGTALVKVKYGEVTKTIPVTVKANPVLETIAVDSTGVSVAKGQKATFKVTLKDQYGNKFTGNVNVTSDKTETATVSVSNSGIGQSEYTVTVNGVAEGSTTITIKSGTKEVKVPVNVVAGGPVANYQIKVLDDGKIDKSATESPANNDVQLKVYAVDANGNIVGDITNDVTITSEATDTNGVIVNASKSTANGDTVYVITDNGSKKVGKETLTVKLGTVTLGTVDVEVIDTTLKATVVTKKADLIELDAADNGDALAKLLANLDIKDQNGNPMVDSAATPNTNEKLQALKSVLSGIVSSDTSVIGSVSNVDNLKDDASISGLAVKKAGTVTLTLVFNEDSKIAPIAITVKAPAATQDGVTVTGLDLVPGVTGVGKTKFTATDKIKSGHKLYYAVDDSAVPAPAVGTTRNSTKFANEITVGTTEVAANAGQIITVIEVDSSDRVVGYKTFTVEAADLSVAADKTGFTATVTPTGGNQVTTGKTLLAVSDLANGHKLYAAAAGSSAAAAPVKGIAYTDTTVRTTYGTEVTSGTVEVDAQDGQHISIIEVDENGKVVGYKDYTITGIQIGTKSAS
notes: S-layer protein SbsC of Geobacillus stearothermophilus ATCC 12980, mature part, aa 31-1099 (without the 30 aa N-terminal secretion signal); an ATG initiation codon was introduced 5' of the reading frame by the primer; A Met from the introduced ATG precedes residue 31; A two-residue linker (Leu-Glu, from the XhoI site) stands between SbsC and the EGFP reading frame (720 bp, from the Clontech …)
binding result: binds
